In patent publication US20250009852A1, “DEPLETING EGFR AND HER2 OVERCOMES RESISTANCE TO EGFR INHIBITORS IN COLORECTAL CANCER” (Health Research, Inc., priority 2021, published 2025):

How the values were obtained:
HB-EGF = assay: Measurement of soluble HB-EGF in tumor tissues by ELISA; type: in vivo, mouse; settings: HCT116 and HT29 tumors; aderbasib 60 mg/kg
Description: Concentrations of AREG and HB-EGF in tumor tissues were measured using the Human Amphiregulin/AREG ELISA Kit PicoKine and HB-EGF ELISA Kit, following the manufacturer's instruction. Briefly, 100 μl of standard or tumor tissue homogenate (cleared by centrifugation) was added to a microtiter well pre-coated with anti-human AREG or anti-human HB-EGF and incubated for 2 h at RT. After washing the plate with washing buffer, 100 μl of biotinylated anti-human AREG or biotinylated anti-human HB-EGF were added to each well and incubated for 1.5 h at RT. The microtiter wells were washed 3 times with wash buffer and incubated with 100 μl/well of avidin-biotin-peroxidase complex for 40 min at RT. The microtiter wells were washed 5 times with wash buffer and incubated with 90 µl/well color developing reagent for 30 min at RT. After adding 100 μl of stop solution to each well, absorbance at 450 nm was recorded by a Synergy 2 Multi-Mode Microplate Reader.

HRAS, NRAS, KRAS = assay: Western blotting of whole cell lysates: RAS proteins; type: cell-based, human; settings: 48 h
Description: To prepare whole cell lysates, cells were washed with PBS twice, mixed with 1× cell lysis buffer from Cell Signaling Technology supplemented with 2 mM PMSF and a protease inhibitor cocktail from Roche Applied Science, placed on ice for 10 min, sonicated at 0-4° C. to enhance cell lysis using a Branson Model 450 sonifier, and finally centrifuged at 13,000 g for 10 min at 4° C., and the supernatant fraction is collected as whole cell lysate. Tumor and samples were mixed with RIPA buffer (25 mM Tris-HCl, PH7.6, 150 mM NaCl, 1% Nonidet P-40, 1% sodium deoxycholate, and 0.1% SDS), which was supplemented with 2 mM PMSF, the protease inhibitor cocktail mentioned above, phosphatase inhibitor cocktail 2 and phosphatase inhibitor cocktail 3 from Sigma-Aldrich at 14.3 μl buffer per mg tissue, and homogenized in a Dounce homogenizer. The homogenates were cleared by centrifugation at 13,000 g for 15 min at 4° C.
(§1) Protein concentrations in all samples were measured using the BCA Assay Kit. […] Proteins were transferred to polyvinylidene fluoride membrane, probed with specific antibodies, and detected using either Luminata Classico (Millipore) or Luminata Cresendo (Millipore). […] The beads were washed three times with IP buffer, suspended in 2× SDS loading buffer, boiled for 5 min, and analyzed by Western blotting.

RAS = RAS activity assay (Ras Activation ELISA) in cell lysates; type: cell-based, human; settings: 25 nM, 48 h
Description: Ras activity in cell lysates was measured using a Ras Activation ELISA Kit from Cell Biolabs. Briefly, approximately 5×10^6 cells were mixed with 0.5 ml lysis buffer. Cell lysates were cleared by centrifugation at 14,000 g for 10 min at 4° C., and 250 μl per sample was mixed with 10 μl of 0.5 M EDTA with or without 5 μl of either 100× GTPγS or 100× GDP, which was incubated at 37° C. for 30 min with agitation and then mixed with 33 μl of 1 M MgCl2. The mixture after appropriate dilution was transferred at 100 μl per sample to a well in a 96-well plate immobilized with RAF-1 RAS-binding domain and incubated for 1 h at RT. After washing the wells 5 times with wash buffer, 100 μl of an anti-pan-RAS antibody was added to each well and incubated for 1 h at RT. After another round of wash, 100 μl of a secondary antibody-HRP conjugate was added to each well and incubated for 1 h at RT. After yet another round of wash, 100 μl of substrate solution was added to each well and incubated at RT for 20 min, followed by addition of 100 μl of stop solution to each well. Absorbance at 450 nm in each well was recorded by a Synergy 2 Multi-Mode Microplate Reader.

[1] = test system: EGFR-HER3, EGFR-IGF1R and EGFR-MET heterodimers; assay: Immunoprecipitation and Western blotting of EGFR heterodimers; type: cell-based, human; settings: 25 nM, 48 h
Description: Protein concentrations in all samples were measured using the BCA Assay Kit. For Western blotting, each sample was mixed with 4× loading dye, heated for 5 min at 95° C., and resolved by SDS-PAGE (8-12.5%). Proteins were transferred to polyvinylidene fluoride membrane, probed with specific antibodies, and detected using either Luminata Classico (Millipore) or Luminata Cresendo (Millipore). For IP, cell lysates (0.5 mg protein/sample) were incubated with a desired antibody overnight at 4° C., followed by incubation of 500 μl sample with 30 μl G-Sepharose beads (2 mg/ml) for 1 h at RT. The beads were washed three times with IP buffer, suspended in 2× SDS loading buffer, boiled for 5 min, and analyzed by Western blotting.

EGFR and HER2 = assay: Western blotting of tumor homogenates: EGFR and HER2; type: in vivo, mouse; settings: 24 h after the final dose
Description: To prepare whole cell lysates, cells were washed with PBS twice, mixed with 1× cell lysis buffer from Cell Signaling Technology supplemented with 2 mM PMSF and a protease inhibitor cocktail from Roche Applied Science, placed on ice for 10 min, sonicated at 0-4° C. to enhance cell lysis using a Branson Model 450 sonifier, and finally centrifuged at 13,000 g for 10 min at 4° C., and the supernatant fraction is collected as whole cell lysate. […]
as §1
SCID mice (C.B.17 SCID) were bred by the Laboratory Animal Shared Resource at Roswell Park Comprehensive Cancer Center. […] Subcutaneous tumor volume was measured using length ×width^2÷2. Tumor volume was measured three times each week. Orthotopic tumor growth was monitored by bioluminescence weekly. Mice were given D-luciferin (150 mg/kg) by ip and anesthetized with isoflurane, and tumor burden was measured by bioluminescence using the IVIS Spectrum In Vivo Imaging System (PerkinElmer). Drug treatment was started when significant tumor growth was detected. […]

| Molecule | soluble HB-EGF level in the tumor tissues (HB-EGF) | expression of HRAS and NRAS (HRAS, NRAS, KRAS; HCT116, HT29 and SW48 cells, 25 nM) | expression of WT or mutated KRAS (HRAS, NRAS, KRAS; PEPD^G278D 25 nM, cetuximab 275 nM) | inhibition of RAS activity (RAS; HCT116 cells) | inhibition of RAS activity (RAS; HT29 cells) | inhibition of RAS activity (RAS; SW48 cells) | EGFR association with HER3, MET or IGF1R [1] | effect on EGFR, HER2 and ERK in tumors (EGFR and HER2; HCT116 and HT29 tumors) | expression and phosphorylation of EGFR and HER2 in tumors (EGFR and HER2; SW48 tumors) |
| --- | --- | --- | --- | --- | --- | --- | --- | --- | --- |
| COC(=O)N1CC2(CC2)C[C@H](C(=O)NO)[C@H]1C(=O)N1CC=C(c2ccccc2)CC1 [aderbasib] | marked decrease | – | – | – | – | – | – | – | – |
| PEPD^G278D: recombinant and enzymatically inactive mutant of human peptidase D (PEPD), with replacement of glycine 278 by aspartic acid (protein, left off: small tags and cut ends) AAATGPSFWLGNETLKVPLALFALNRQRLCERLRKNPAVQAGSIVVLQGGEETQRYCTDTGVLFLQESFFHWAFGVTEPGCYGVIDVDTGKSTLFVPRLPASHATWMGKIHSKEHFKEKYAVDDVQYVDEIASVLTSQKPSVLLTLRGVNTDSGSVCREASFDGISKFEVNNTILHPEIVESRVFKTDMELEVLRYTNKISSEAHREVMKAVKVGMKEYGLESLFEHYCYSRGGMRHSSYTCICGSGENSAVLHYGHAGAPNDRTIQNGDMCLFDMDGEYYSVASDITCSFPRNGKFTADQKAVYEAVLLSSRAVMGAMKPGDWWPDIDRLADRIHLEELAHMGILSGSVDAMVQAHLGAVFMPHGLGHFLGIDVHDVGGYPEGVERIDEPGLRSLRTARHLQPGMVLTVEPGIYFIDHLLDEALADPARASFLNREVLQRFRGFGGVRIEEDVVVIDSGIELLTCVPRTVEEIEACMAGCDKAFTPFSGPK | – | strongly downregulates | neither PEPD^G278D nor cetuximab regulated the expression | 73% | 75% | 75% | disruption of EGFR association | neither PEPD^G278D nor cetuximab had any effect | decreased the expression and phosphorylation of both EGFR and HER2 |
